Laboratory results reported in US20070243303, “Methods and Means for Regulating Gene Expression” (Friesland Brands B.V., published 2007).

Assays:
CodY (native, in cell) [1] = target: T1, CodY (native, in cell) (Lactococcus lactis subsp. cremoris …, UniProt A2RHP2 A2RHP2:1-262); assay: cell_activity; settings: 8-fold for prtM::lacZ; less than 2-fold in codY mutant; scale: fold repression
T1 sequence: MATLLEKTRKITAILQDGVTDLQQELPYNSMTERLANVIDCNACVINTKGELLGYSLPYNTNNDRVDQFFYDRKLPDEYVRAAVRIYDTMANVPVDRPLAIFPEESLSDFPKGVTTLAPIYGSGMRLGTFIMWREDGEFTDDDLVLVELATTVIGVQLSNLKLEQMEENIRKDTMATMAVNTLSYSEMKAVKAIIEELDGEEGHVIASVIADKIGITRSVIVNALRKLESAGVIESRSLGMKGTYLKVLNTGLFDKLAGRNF

CodY (H6-CodY) [2] = target: T2, CodY (H6-CodY) (Lactococcus lactis subsp. cremoris …, UniProt A2RHP2 A2RHP2:1-262); assay: EMSA; no binding at any protein amount; settings: tags: N-terminal His6 (pNH6CodY, nisin-induced in L. lactis NZ9000, Ni-NTA); chain copies: multimer, dimer or tetramer by cross-linking (stated); label: 32P 5'-end
T2 sequence: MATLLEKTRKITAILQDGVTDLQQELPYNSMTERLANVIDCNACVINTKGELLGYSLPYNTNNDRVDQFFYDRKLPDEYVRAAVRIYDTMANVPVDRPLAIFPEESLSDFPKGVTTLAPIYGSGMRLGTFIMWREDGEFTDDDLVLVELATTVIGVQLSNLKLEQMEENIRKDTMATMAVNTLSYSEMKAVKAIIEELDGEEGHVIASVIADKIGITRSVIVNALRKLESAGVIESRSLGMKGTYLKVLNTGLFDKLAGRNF
Protocol: BSA (1 μg) and poly(dI-dC) (Amersham Pharmacia Biotech) were added to the reaction mixtures in order to reduce non-specific interactions. After incubation for 15 min at 30° C., samples were loaded onto a 4% polyacrylamide gel. Electrophoresis was performed in the Protean II Minigel System (Bio Rad Laboratories B. V., Veenendaal, The Netherlands) using a gradient (0.5× to 2×) of TAE buffer (Sambrook, Fritsch, and Maniatis, 1989) at 150 V for 1.5 h. Gels were dried and used for autoradiography at −80° C. using Kodak XAR-5 films and intensifying screens.
The upstream oppD region contains a small sequence that is inversely repeated with a spacing of 9 base pairs in between (FIG. 1). This region of dyad symmetry is located just upstream of the −35 promoter sequence. To determine whether this region is important for the interaction with CodY, a stepwise deletion analysis of the oppD upstream region was performed. Radioactively labeled deletion fragments of the region, obtained by PCR, were incubated with H6-CodY. […]
Different parts of the oppD promoter region were amplified by PCR (panel A), radioactively labelled and incubated with no (lanes 1), 20 ng (lanes 2) or 200 ng (lanes 3) of His6-CodY protein, respectively (panel B). […] Cells were harvested in the exponential phase of growth and β-galactosidase activity was measured (solid bars). […]

CodY (H6-CodY) [3] = target: T2, CodY (H6-CodY); assay: EMSA; affinity order WT > opp15(a) > opp15(b); settings: tags: N-terminal His6 (pNH6CodY, nisin-induced in L. lactis NZ9000, Ni-NTA); chain copies: multimer, dimer or tetramer by cross-linking (stated); label: 32P 5'-end
Description: (§1) The fact that H6-CodY was unable to form a protein-DNA complex when a probe was used that lacks the upstream arm of this IR (probe 1 in FIG. 3) implies that this area might serve as an operator site for CodY on PoppD. To study this region in more detail, site directed mutations were introduced by PCR using combinations of oligonucleotide opp1 with oligonucleotides opp14 (WT), opp15(a), opp(15b) or opp2, respectively (FIG. 4A). The PCR products were ligated upstream of the promoterless lacZ reporter gene in pORI13 and introduced into L. lactis LL108. […] When the unchanged half-site was replaced by an unrelated sequence (an XbaI endonuclease site, present in opp2), repression was reduced approximately 30-fold (in cells growing exponentially in rich medium) and H6-CodY binding was completely abolished (as shown in FIG. 3).
(§2) FIG. 4D: Promoter activity of PoppD variants. L. lactis LL108 strains carrying the lacZ reporter plasmids were grown in GM17 medium. Cells were harvested in the exponential phase of growth and β-galactosidase activity was measured (solid bars). […] Open bars indicate a quantitative representation of the DNA binding assay shown in panel C. The relative binding affinity of H6-CodY for the PoppD variants was calculated by comparing the intensity of the shifted, H6-CodY bound complexes with the total radioactive signal in each lane in the presence of 100 ng protein.

CodY (H6-CodY) [4] = target: T2, CodY (H6-CodY); assay: EMSA; 20 or 200 ng H6-CodY; settings: tags: N-terminal His6 (pNH6CodY, nisin-induced in L. lactis NZ9000, Ni-NTA); chain copies: multimer, dimer or tetramer by cross-linking (stated); label: 32P 5'-end
Protocol: (§3) Gel retardation experiments were carried out essentially as described by Ebbole and Zalkin (Ebbole et al., 1989). Purified PCR products (2 μg) were end-labelled with polynucleotide kinase (Amersham Pharmacia Biotech) for 1 h at 37° C. using 30 μCi [γ-³²P]-ATP (Amersham Pharmacia Biotech) in a volume of 20 μl. Reactions were stopped by incubating the mixtures for 10 min at 70° C. Binding studies were carried out in 20 μl reaction volumes containing 20 mM Tris-HCl (pH 8.0), 8.7% (v/v) glycerol, 1 mM EDTA (pH 8.0), 5 mM MgCl₂, 100 mM KCL, 0.5 mM DTT, labelled DNA fragment (3000 cpm), and purified His6-CodY protein (50-400 ng). BSA (1 μg) and poly(dI-dC) (Amersham Pharmacia Biotech) were added to the reaction mixtures in order to reduce non-specific interactions. After incubation for 15 min at 30° C., samples were loaded onto a 4% polyacrylamide gel. Electrophoresis was performed in the Protean II Minigel System (Bio Rad Laboratories B. V., Veenendaal, The Netherlands) using a gradient (0.5× to 2×) of TAE buffer (Sambrook, Fritsch, and Maniatis, 1989) at 150 V for 1.5 h. Gels were dried and used for autoradiography at −80° C. using Kodak XAR-5 films and intensifying screens.
The upstream oppD region contains a small sequence that is inversely repeated with a spacing of 9 base pairs in between (FIG. 1). This region of dyad symmetry is located just upstream of the −35 promoter sequence. […]

CodY (native, in cell) [5] = target: T1, CodY (native, in cell); assay: cell_activity; lacZ reporter in L. lactis LL108
Description: as §1, §2

CodY (H6-CodY) [6] = target: T2, CodY (H6-CodY); assay: EMSA; multiple retarded bands, four with 10-100 ng; 5 mM MgCl2, 100 mM KCl, pH 8.0, 30 C; Ile (0.6 or 2.5 mM) stimulates, Val/Leu 0.6 mM reduce shift and 2.5 mM give; settings: tags: N-terminal His6 (pNH6CodY, nisin-induced in L. lactis NZ9000, Ni-NTA); chain copies: multimer, dimer or tetramer by cross-linking (stated); label: 32P 5'-end
Protocol: as §3, with “Binding studies were carried out in 20 μl reaction volumes containing 20 mM Tris-HCl (pH 8.0), 8.7% (v/v) glycerol, 1 mM EDTA (pH 8.0), 5 mM MgCl₂, 100 mM KCL, 0.5 mM DTT, labelled DNA fragment (3000 cpm), and purified His6-CodY protein (50-400 ng).” left out
In order to examine whether L. lactis CodY directly interacts with upstream DNA sequences of its main target known so far, oppD, in vitro DNA binding studies were performed. For this purpose, histidine-tagged CodY was overexpressed using the nisin inducible gene expression system (Kuipers et al., 1998) and subsequently purified to apparent homogeneity. A radioactively labeled PCR fragment spanning the oppD upstream region (FIG. 1) was used as a probe. […]

## prtP/prtM intergenic region BGMN1-5 (330 bp)
CodY (native, in cell) [1]
  activity: 6

B1: oppD probe 1 / opp2 (160 bp, upstream arm removed) (dsDNA)
DNA 1: AACTGCAGGAAAATTCATGAACATACC
DNA 2: GGTATGTTCATGAATTTTCCTGCAGTT
CodY (H6-CodY) [2]
  binding result: no binding

B2: opp14 WT oppD fragment (154 bp) (dsDNA)
DNA 1: ATGTTCAGAAAATTCATGAACAT
DNA 2: ATGTTCATGAATTTTCTGAACAT
CodY (H6-CodY) [3]
  binding result: binds

B3: oppD probe 2 (-111 to +75) (dsDNA)
DNA 1: ATGTTCAGAAAATTCATGAACAT
DNA 2: ATGTTCATGAATTTTCTGAACAT
CodY (H6-CodY) [4]
  binding result: binds

B4: opp15(b) mutant oppD fragment (154 bp) (dsDNA)
DNA 1: AACTGCAGCGTACTGTGCCGAAAATTCATGAACATACC
DNA 2: GGTATGTTCATGAATTTTCGGCACAGTACGCTGCAGTT
CodY (native, in cell) [5]
  activity: > 20 fold derepression vs WT

B5: oppD promoter fragment opp162 (probe 3, opp1-opp3 PCR) (dsDNA)
DNA 1: ATGTTCAGAAAATTCATGAACAT
DNA 2: ATGTTCATGAATTTTCTGAACAT
CodY (H6-CodY) [6]
  binding result: binds

B6: opp15(a) mutant oppD fragment (154 bp) (dsDNA)
DNA 1: AACTGCAGCGTAATATTTAGAAAATTCATGAACATACC
DNA 2: GGTATGTTCATGAATTTTCTAAATATTACGCTGCAGTT
CodY (native, in cell) [5]
  activity: ~7 fold derepression vs WT
